Laboratory results published in patent US20260250399A1 (VIRIDIAN THERAPEUTICS, published 2026).

Columns and labels:
[1] = biological target: T1, IGF-1R on cells (A549 human lung adenocarcinoma cells; primary human ocular choroid fibroblasts, HOCF) (human, UniProt P08069 31-1367); assay: cell-based or functional assay
[2] = biological target: T1, IGF-1R on cells (A549 human lung …); assay: flow cytometry on A549 cells, binding dose response curve
Experimental: (§1) Cell binding: A549 human lung adenocarcinoma cells or primary human ocular choroid fibroblasts (HOCF) were incubated with varying concentrations of VRDN-5000 or teprotumumab. A single dose 50 nM IgG1 isotype control was used as negative control. Unbound antibody was removed by washing, and the cells were incubated with an Alexa Fluor 488-goat anti-human antibody and a cell impermeable dye to gate live cells. The median fluorescence intensity (MFI) of viable cells was measured by flow cytometry and the data were analyzed using FlowJo software. Dose curves were fitted using a non-linear regression model; log (agonist) vs response-variable slope (four parameters).
VRDN-5000 Binds With High Affinity To IGF-1R On A549 Cells. As illustrated in FIG. 3A-C, VRDN-5000 binding to A549 cells was assessed by flow cytometry and found to have similar binding distribution as teprotumumab at three different concentrations.

[3] = biological target: T1, IGF-1R on cells (A549 human lung …); assay: flow cytometry on HOCF cells, binding dose response curve
Experimental: as §1
FIG. 5A-B illustrate VRDN-5000 binding to HOCF cells, which was assessed by flow cytometry and found to have largely similar binding as teprotumumab at three different concentrations.

T1 sequence (P08069 31-1367): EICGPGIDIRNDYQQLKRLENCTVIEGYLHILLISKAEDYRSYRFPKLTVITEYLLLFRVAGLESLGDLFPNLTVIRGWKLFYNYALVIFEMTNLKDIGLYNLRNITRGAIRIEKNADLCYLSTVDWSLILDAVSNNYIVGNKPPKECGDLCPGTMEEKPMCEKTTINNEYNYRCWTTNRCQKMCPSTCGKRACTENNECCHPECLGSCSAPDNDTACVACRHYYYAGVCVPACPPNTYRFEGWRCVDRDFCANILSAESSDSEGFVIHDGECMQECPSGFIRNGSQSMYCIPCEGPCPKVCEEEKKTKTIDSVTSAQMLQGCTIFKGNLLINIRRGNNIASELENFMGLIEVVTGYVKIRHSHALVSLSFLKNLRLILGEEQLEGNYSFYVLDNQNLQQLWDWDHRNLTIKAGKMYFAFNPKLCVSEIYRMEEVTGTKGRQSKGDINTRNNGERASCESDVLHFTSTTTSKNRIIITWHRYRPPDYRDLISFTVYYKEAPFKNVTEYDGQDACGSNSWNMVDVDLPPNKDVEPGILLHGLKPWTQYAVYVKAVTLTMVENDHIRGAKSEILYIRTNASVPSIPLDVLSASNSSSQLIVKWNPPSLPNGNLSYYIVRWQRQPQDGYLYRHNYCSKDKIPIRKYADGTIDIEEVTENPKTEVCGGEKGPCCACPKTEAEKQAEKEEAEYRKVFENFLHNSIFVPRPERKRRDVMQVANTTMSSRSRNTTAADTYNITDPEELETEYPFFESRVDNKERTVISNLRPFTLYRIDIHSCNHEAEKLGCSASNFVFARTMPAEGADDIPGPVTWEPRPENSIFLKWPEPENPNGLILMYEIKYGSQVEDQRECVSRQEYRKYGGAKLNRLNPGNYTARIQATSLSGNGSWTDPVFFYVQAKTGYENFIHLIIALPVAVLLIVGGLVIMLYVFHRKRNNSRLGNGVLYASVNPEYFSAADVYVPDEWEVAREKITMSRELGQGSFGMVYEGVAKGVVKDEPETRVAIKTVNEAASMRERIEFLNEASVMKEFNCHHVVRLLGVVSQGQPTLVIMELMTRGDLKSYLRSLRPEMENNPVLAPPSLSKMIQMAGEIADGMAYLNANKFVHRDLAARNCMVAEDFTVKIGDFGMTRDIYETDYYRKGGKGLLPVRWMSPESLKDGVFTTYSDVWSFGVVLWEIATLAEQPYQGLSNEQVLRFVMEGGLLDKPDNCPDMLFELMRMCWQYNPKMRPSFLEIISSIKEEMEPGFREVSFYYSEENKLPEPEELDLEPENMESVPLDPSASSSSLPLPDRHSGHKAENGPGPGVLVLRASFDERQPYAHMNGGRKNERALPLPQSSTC

B1: VRDN-5000 (antibody, human IgG1, kappa)
heavy: not shown
light: DVVMTQTPLSLPVSLGDPASISCRSSQSIVHSNVNTYLEWYLQKPGQSPRLLIYKVSNRFSGVPDRFSGSGAGTDFTLRISRVEAEDLGIYYCFQGSHVPPTFGGGTKLEIKRTVAAPSVFIFPPSDEQLKSGTASVVCLLNNFYPREAKVQWKVDNALQSGNSQESVTEQDSKDSTYSLSSTLTLSKADYEKHKVYACEVTHQGLSSPVTKSFNRGEC
notes: neither was used; also called VRDN-001
**Q.** What does the source list for B1?
**A.** IC50 of IGF-1 stimulated receptor phosphorylation on A549 cells (pIGF-1R ELISA) [1]: 90 pM; IC50 of IGF-1 stimulated receptor phosphorylation on HOCF cells (pIGF-1R ELISA) [1]: 90 pM; EC50 [2]: 0.1 nM; EC50 [3]: 0.4 nM
